Results taken from patent US20170355757A1 (Regeneron, published 2017).
Changes are numbered by the printed parent chain. In names and notes the source's numbering stands.

How the values were obtained:
[1] = target: T1, Human C5 (human, UniProt P01031 19-1676); experiment: SPR, mAb captured by anti-hFc, 25C
T1 construct: The natural protein has a beta and an alpha chain; also called complement factor 5; complement component 5
Procedure: (§1) Equilibrium dissociation constants (KD values) for C5 binding to purified anti-C5 antibodies were determined using a real-time surface plasmon resonance biosensor assay on a Biacore T200 instrument. The Biacore sensor surface was derivatized by amine coupling with a monoclonal mouse anti-human Fc antibody (GE Healthcare, # BR-1008-39) to capture anti-C5 antibodies expressed with human Fc constant regions. Biacore binding studies were conducted in HBST running buffer (0.01M HEPES pH 7.4, 0.15M NaCl, 3 mM EDTA, 0.05% v/v Surfactant P20).
(§2) Human C5 was obtained from a commercial source (EMD). Other C5 reagents were expressed with a C-terminal myc-myc-hexahistidine tag (subsequently referred to as C5-mmh). […] Association of all the C5 reagents to each of the captured monoclonal antibodies was monitored for 3 minutes and their dissociation in HBST running buffer was monitored for 8 minutes. All the binding kinetics experiments were performed at either 25° C. or 37° C. Kinetic association (kₐ) and dissociation (kd) rate constants were determined by fitting the real-time sensorgrams to a 1:1 binding model using Scrubber 2.0c curve fitting software. Binding dissociation equilibrium constants (KD) and dissociative half-lives (t %) were calculated from the kinetic rate constants as: KD (M)=kd/kₐ and t_{1/2} (min)=In2/(60×kd)

[2] = target: T2, monkey C5-mmh (monkey, UniProt P01031 19-1676 (human entry), limits assumed); experiment: SPR, mAb captured by anti-hFc, 25C
T2 construct: Expressed with a C-terminal myc-myc-hexahistidine tag
T2 chain: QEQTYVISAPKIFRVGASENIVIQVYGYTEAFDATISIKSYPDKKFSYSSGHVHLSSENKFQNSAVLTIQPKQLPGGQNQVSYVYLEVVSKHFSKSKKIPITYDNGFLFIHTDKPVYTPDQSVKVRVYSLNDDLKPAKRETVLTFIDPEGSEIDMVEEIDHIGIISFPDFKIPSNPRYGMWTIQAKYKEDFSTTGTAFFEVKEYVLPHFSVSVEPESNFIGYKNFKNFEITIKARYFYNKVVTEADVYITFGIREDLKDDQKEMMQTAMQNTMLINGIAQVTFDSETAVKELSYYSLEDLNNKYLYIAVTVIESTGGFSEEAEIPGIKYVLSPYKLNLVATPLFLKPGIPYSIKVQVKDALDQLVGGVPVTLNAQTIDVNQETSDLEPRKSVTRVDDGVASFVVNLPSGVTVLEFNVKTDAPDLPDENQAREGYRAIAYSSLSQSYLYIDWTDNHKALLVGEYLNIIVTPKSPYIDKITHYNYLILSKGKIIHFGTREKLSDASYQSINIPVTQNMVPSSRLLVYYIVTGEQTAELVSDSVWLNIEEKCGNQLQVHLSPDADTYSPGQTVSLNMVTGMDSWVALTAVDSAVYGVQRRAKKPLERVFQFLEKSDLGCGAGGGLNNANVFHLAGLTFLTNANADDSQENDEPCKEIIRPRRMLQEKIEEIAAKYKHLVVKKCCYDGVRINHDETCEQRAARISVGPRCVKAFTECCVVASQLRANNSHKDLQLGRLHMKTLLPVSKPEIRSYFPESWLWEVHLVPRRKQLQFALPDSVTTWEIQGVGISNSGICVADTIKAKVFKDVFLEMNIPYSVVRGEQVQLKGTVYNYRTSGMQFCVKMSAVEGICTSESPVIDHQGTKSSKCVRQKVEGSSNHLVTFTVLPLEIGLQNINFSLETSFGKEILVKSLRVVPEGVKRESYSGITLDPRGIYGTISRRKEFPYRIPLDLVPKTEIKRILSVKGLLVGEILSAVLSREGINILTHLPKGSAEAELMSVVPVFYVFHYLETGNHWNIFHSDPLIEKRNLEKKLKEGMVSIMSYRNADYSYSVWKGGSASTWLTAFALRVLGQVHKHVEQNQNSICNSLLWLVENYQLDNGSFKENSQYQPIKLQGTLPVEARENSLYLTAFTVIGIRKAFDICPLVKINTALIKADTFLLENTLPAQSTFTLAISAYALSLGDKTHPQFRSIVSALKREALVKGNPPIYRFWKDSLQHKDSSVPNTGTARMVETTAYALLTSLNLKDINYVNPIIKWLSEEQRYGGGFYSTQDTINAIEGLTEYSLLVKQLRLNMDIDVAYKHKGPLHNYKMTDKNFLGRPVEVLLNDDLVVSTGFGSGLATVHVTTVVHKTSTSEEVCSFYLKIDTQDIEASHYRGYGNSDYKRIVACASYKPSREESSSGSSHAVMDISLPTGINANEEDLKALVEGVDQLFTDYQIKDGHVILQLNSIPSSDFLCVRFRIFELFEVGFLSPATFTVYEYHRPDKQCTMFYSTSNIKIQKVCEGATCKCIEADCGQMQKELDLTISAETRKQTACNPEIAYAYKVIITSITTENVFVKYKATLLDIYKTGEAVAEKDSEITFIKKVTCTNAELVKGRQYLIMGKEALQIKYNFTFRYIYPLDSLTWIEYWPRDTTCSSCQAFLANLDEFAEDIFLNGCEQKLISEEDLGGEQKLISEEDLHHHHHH
Procedure: as §1, §2

[3] = target: T1, Human C5; experiment: SPR, mAb captured by anti-hFc, 37C
Procedure: as §1, §2

[4] = target: T3, monkey C5-mmh (monkey, UniProt P01031 19-1676 (human entry), limits assumed); experiment: SPR, mAb captured via anti-hFc, 37C
T3 construct: Recombinant monkey C5 with a C-terminal myc-myc-hexahistidine tag
T3 chain: T2 chain
Procedure: as §1, §2

[5] = target: T4, human C5 R885H-mmh (human, UniProt P01031 19-1676); experiment: SPR, mAb captured via anti-hFc, 37C
T4 construct: also called human C5 variant R885H
Procedure: as §1, §2

[6] = target: T5, human C5 R885C-mmh (human, UniProt P01031 19-1676); experiment: SPR, mAb captured via anti-hFc, 37C
T5 construct: also called human C5 variant R885C
Procedure: as §1, §2

[7] = target: T4, human C5 R885H-mmh; experiment: SPR, mAb captured via anti-hFc, 25C
Procedure: as §1, §2

[8] = target: T5, human C5 R885C-mmh; experiment: SPR, mAb captured via anti-hFc, 25C
Procedure: as §1, §2

B1: H4H12161P (antibody, human IgG4, V domains shown)
VH: EVQLVESGGDLVQPGGSLRLSCAASGFTFSDHYMDWVRQAPGKGLDWIGRIRNKANAYNTEYAASVRGRFTISRDDSQNLLYLQMNSLKTDDTAVYYCVRVWNYAYFAMDVWGQGTTVTVSS
VL: DIQMTQSPSSLSASVGDRVTITCRSSQNIGIFLNWYQQKPGEAPNLLISAASSLHSGVPSRFSGSGSGTDFTLTIGSLQPEDFATYYCQQTYNTIFTFGPGTKVDIK
[1]
  100 nM Human C5 Bound (RU): 64 RU
  Kd: 0.17 nM
  koff: 4.37e-05 s⁻¹
  kon: 258000 M⁻¹ s⁻¹
  t½: 264 min
[2]
  100 nM monkey C5-mmh Bound (RU): 45 RU
  Kd: 0.392 nM
  koff: 2.48e-05 s⁻¹
  kon: 63300 M⁻¹ s⁻¹
  t1/2: 465 min
[3]
  100 nM Human C5 Bound (RU): 66 RU
  Kd: 0.99 nM
  koff: 0.000115 s⁻¹
  kon: 116000 M⁻¹ s⁻¹
  t½: 101 min

B2: H4H12161P (antibody, human IgG4, V domains shown)
VH: B1 VH
VL: B1 VL
notes: Human IgG4 Fc with S108P hinge mutation (H4H)
[4]
  100 nM monkey C5-mmh Bound (RU): 53 RU
  Kd: 5.56 nM
  koff: 0.000745 s⁻¹
  kon: 134000 M⁻¹ s⁻¹
  t1/2: 16 min
[5]
  100 nM Human C5 R885H-mmh Bound (RU): 54 RU
  Kd: 7.84 nM
  koff: 0.000925 s⁻¹
  kon: 118000 M⁻¹ s⁻¹
  t1/2: 12 min
[6]
  100 nM Human C5 R885C-mmh Bound (RU): 49 RU
  Kd: 8.17 nM
  koff: 0.000901 s⁻¹
  kon: 110000 M⁻¹ s⁻¹
  t1/2: 13 min
[7]
  100 nM Human C5 R885H-mmh Bound (RU): 199 RU
  Kd: 0.996 nM
  koff: 8.32e-05 s⁻¹
  kon: 83600 M⁻¹ s⁻¹
  t1/2: 139 min
[8]
  100 nM Human C5 R885C-mmh Bound (RU): 147 RU
  Kd: 0.672 nM
  koff: 8.71e-05 s⁻¹
  kon: 130000 M⁻¹ s⁻¹
  t1/2: 133 min

B3: H4H12166P8 (antibody, human IgG4, V domains shown)
VH: QVQLQESGPGLVKPSETLSLTCTVSGDSVSSSYWTWIRQPPGKGLEWIGYIYYSGSSNYNPSLKSRATISVDTSKNQFSLKLSSVTAADTAVYYCAREGNVDHTMIFDYWGQGTLVTVSS
VL: AIQMTQSPSSLSASVGDRVTITCRASQGIRNDLGWYQQKPGKAPKLLIYAASSLQSGVPSRFAGRGSGTDFTLTISSLQPEDFATYYCHQDFNYPWTFGQGTKVEIK
notes: human IgG4 Fc with S108P hinge mutation
[1]
  100 nM Human C5 Bound (RU): 91 RU
  Kd: 1.42 nM
  koff: 0.000686 s⁻¹
  kon: 484000 M⁻¹ s⁻¹
  t½: 17 min
[2]
  100 nM monkey C5-mmh Bound (RU): 47 RU
  Kd: 21.6 nM
  koff: 0.00499 s⁻¹
  kon: 231000 M⁻¹ s⁻¹
  t1/2: 2 min
[3]
  100 nM Human C5 Bound (RU): 98 RU
  Kd: 3.1 nM
  koff: 0.00209 s⁻¹
  kon: 675000 M⁻¹ s⁻¹
  t½: 6 min

B4: H4H12166P10 (antibody, human IgG4, V domains shown)
VH: B3 VH with H103T, F107H
VL: B3 VL with H89L, T97H
notes: as for B3
[1]
  100 nM Human C5 Bound (RU): 69 RU
  Kd: 8.38 nM
  koff: 0.00132 s⁻¹
  kon: 157000 M⁻¹ s⁻¹
  t½: 9 min
[2]
  100 nM monkey C5-mmh Bound (RU): 15 RU
  Kd: 64.4 nM
  koff: 0.00616 s⁻¹
  kon: 95600 M⁻¹ s⁻¹
  t1/2: 2 min
[3]
  100 nM Human C5 Bound (RU): 82 RU
  Kd: 13.8 nM
  koff: 0.00314 s⁻¹
  kon: 227000 M⁻¹ s⁻¹
  t½: 4 min

B5: H4H12166P9 (antibody, human IgG4, V domains shown)
VH: B3 VH
VL: B3 VL with H89L, T97H
notes: as for B3
[1]
  100 nM Human C5 Bound (RU): 100 RU
  Kd: 0.794 nM
  koff: 0.000264 s⁻¹
  kon: 332000 M⁻¹ s⁻¹
  t½: 44 min
[2]
  100 nM monkey C5-mmh Bound (RU): 55 RU
  Kd: 18.7 nM
  koff: 0.00318 s⁻¹
  kon: 170000 M⁻¹ s⁻¹
  t1/2: 4 min
[3]
  100 nM Human C5 Bound (RU): 122 RU
  Kd: 1.7 nM
  koff: 0.000639 s⁻¹
  kon: 375000 M⁻¹ s⁻¹
  t½: 18 min

B6: H4H12171P (antibody, human IgG4, V domains shown)
VH: EVQLVESGGGVVRPGGSLRLSCAASGFTFDEYGMTWVRQVPGKGLEWVSGITWNGGFTDYTDSVKGRFTSSRDNAKNSLYLQMNSLRAEDTALYYCARDGYSSSWGAYDIWGQGTMVTVSS
VL: DIQMTQSPSSLSASVGDRVTITCRASQSISTYLNWYQQKPGKAPKLLIYAASSLQSGVPLRFSGSGSGTDFTLTISSLQPEDFASYFCQQSYSTPYTFGQGTKLEIK
[1]
  100 nM Human C5 Bound (RU): 64 RU
  Kd: 0.549 nM
  koff: 8.16e-05 s⁻¹
  kon: 149000 M⁻¹ s⁻¹
  t½: 142 min
[2]
  100 nM monkey C5-mmh Bound (RU): 17 RU
  Kd: 4.92 nM
  koff: 0.000226 s⁻¹
  kon: 46000 M⁻¹ s⁻¹
  t1/2: 51 min
[3]
  100 nM Human C5 Bound (RU): 58 RU
  Kd: 6.27 nM
  koff: 0.000762 s⁻¹
  kon: 122000 M⁻¹ s⁻¹
  t½: 15 min

B7: H4H11683N (antibody, human IgG4, V domains shown)
VH: QVQLVESGGGVVQPGRSLRLSCVASGFTFSSYGIHWVRQAPGKGLEWVAVIWDDGNNINYSDSVKGRFIISRDNSRKTVYLQMNSLRGEDTAVYYCARDAPIAPVPDYWGQGTLVTVSS
VL: DIQMTQSPSTLSASVGDRVTITCRASQSISSWLAWYQQKPGKAPKLLIYKASSLDTGVPSRFSGSGSGTEFTLTISSLQPDDFATYYCQQYNTYSYTFGLGTKLEIK
notes: also called H2M11683N
[1]
  100 nM Human C5 Bound (RU): 439 RU
  Kd: 0.123 nM
  koff: 5.14e-05 s⁻¹
  kon: 417000 M⁻¹ s⁻¹
  t½: 225 min
[2]
  100 nM monkey C5-mmh Bound (RU): 403 RU
  Kd: 0.64 nM
  koff: 0.000247 s⁻¹
  kon: 386000 M⁻¹ s⁻¹
  t1/2: 47 min
[3]
  100 nM Human C5 Bound (RU): 492 RU
  Kd: 0.532 nM
  koff: 0.000241 s⁻¹
  kon: 454000 M⁻¹ s⁻¹
  t½: 48 min
